Here are results for two molecules from PMC4821178 (Insect Biochemistry and Molecular Biology, 2016).

For test [1], the target named is human nicotinic acetylcholine receptor α7 subunit with a three amino acid (IIC) deletion in TM4 (human) (UniProt P36544). Briefly: radioligand binding.
Test [2] concerns the target T1, human nicotinic acetylcholine receptor α7 subunit, wild type (human, UniProt P36544 23-502).
T1 construct: also called Hα7; human α7 nAChR
Briefly: radioligand binding. The following applies: one partner purified.

In test [1], “[3H]-α-bungarotoxin (from UniProt P60615 22-95) (natural protein)” returned an EC50 of 0.9 nM.

B1: [3H]-α-bungarotoxin (natural protein)
chain: IVCHTTATSPISAVTCPPGENLCYRKMWCDAFCSSRGKVVELGCAATCPSKKPYEEVTCCSTDKCNPHPKQRPG
The molecule B1 returned an EC50 in test [2] of 20 ± 5.8 nM.
